Results reported in the DeepSol protein solubility set.

experiment: soluble on expression in E. coli; label from the status in PepcDB or PDB records

Row | Sequence | soluble on expression in E. coli
1 | MGSDKIHHHHHHMGVRQKKIAAHDLEIGMFVSDLDRPWHQTPFPIQGFYLRSENDLKAVVSHCKWVMIDVAETREEITLGSDKVRPFARRSSARSGGREELQLAPLSIREPVVYKNDVPLRKELKASRKLLNDAELALSRMFETIRDDQMPDLRPAAEVTRRMVESVIRQPNALLWLSRTRQYDDFVYRHALNTAVWALVCGRQLGLNEGLLNHLGVGCLLSQVGKTALPKEMLAREHQLSTEEYATYRTYVERGCQMLEGAGLSRAVMSVVQGHRERHNGSGFPQGIRGDRIPLLAKVAGIAEFFESLIAPRDDQDPMTPAKAVSLLYDMRNIEFQEDLVEAFIQGVGVYPTGTLVELSDGQRGIVVSHSPGRRLWPSVMVMQDAEHRPLKSARIVDLARHIESRAASELLTVRECLPHGTDGLDPAGFDVTGAESRWSLGKLINR | not soluble
2 | MGSDKIHHHHHHMHFAPVEQATRFLADNPDIELFELFILDANGVPRGKLLHREELLAVYQTGRPLPSTILGLTLNGDDVENSGLVWDVGDIDCRAYPLDGSLVRLPWRRVPTAAVQVSMHPSEGLPASIADPRHVLLRTIEALKADGYHPVMACELEFYLLDQQRDAQGRPQPALDNDGGRPRSTQVYGLRELEQIEPFLADLYAACKAQGIPARTAISEYAPGQVEITLEHGDALQAMDQAVRYKRLVKGVAHAHGMQACFMAKPFAQLAGTGMHMHLSLADSAGNNLFASEDKAGTPLLRQAVAGMLRHLRDSLLLFCPNANSFRRFQANSYAPLAPTWGVDNRTVSLRVPGGPANSRHVEHRICGADANPYLAAAAILAASHWGIREQLDPGAPVEGNGYAQATEHLPTDWLTALDALQHSDWAREALGEDFLGVYLKVKRAEYRQFMAEVSEQDWRWYLHQA | not soluble
3 | MGSDKIHHHHHHMHGELGKENELDGEIFRQGPVEIRDSRQKVIHSGFSPESQIIEGINAIIKLAHSEEESNLVGIMMSHFMFESIHPFYDGNGRTGRYLLGIQLSKILSPATALTMSSAINQFRNKYYKAFHAVEHRLNRGDGTPFVISMLELLIAAQEGLIENIKQRIDFLASLEDAIKTLRGTNSFKNHQINLLYILGQIQLFGKDETLSLESAAKFLKVSKATATRYFRTLREMELVHEVSKRPLRFALTDKGREIVGLEVKI | not soluble
4 | MGSDKIHHHHHHMHHIGLTRPYSWGIKNFELITVTEKLNIHIQGQGFPILGLHGHPGSGRSLSVFTNHLSKRYQTIAPDLRGYGTSRFRGNFTMQDHLTDLEALLDRLQIEKCLVLGWSLGGILAMELALRLPQRITGLILVATAARPRGNHPPISWQDNLYTGVAGLLNYIKPGWRWNIETFGKRSLFRYLIQQHTPTAYNYIAREALPAYLQTSPSATRALNSALRLGYNRLADLEQIHCPSLVLAGAQDKHITADSSLETAQHLKQSQWQCYPHTAHLFPWEIPQQVINDIDLWLANNSQVMSN | not soluble
5 | MGSDKIHHHHHHMHHVKTGALSISRLEYGADVIIEPDHLDNFYLIQIPTQGYAEIEFGSQKFISYSQVASLISPQQSLRMCWHANSPQLILKVSKDDFTYHCRQHIADSENNLLIFDPKLDFSTQGGAYFLQLVRTLMDALACEQHPLHHPLAFKQFESNLFNALIYGQPNNALHKLDHYKEKTVSPYFVKRTEAYIKEHLHEPLNVEILAEHAGVSVRTLFTGFKNYLGTTPMSYLKELRFEQAHLELMHNENLSVTDVAFKWGFTHLGRFSQEYKRRYGELPSSTRRSGQSEGSGLITSIFS | not soluble
6 | MGSDKIHHHHHHMHIRKYDHDYSRRFFMEQAAKGIATAGVLGPLWPMIANSADITKAYPDELMSIDAWSKGKIKTGDFITAENVDIVKDLLDPVAYQEVKTMGRRIRIVPTTKDVTRMFPHEYLEATLRNQGKAKFDAGGNIVSPDGKPWIGGNPFPDAKTGVEVAANLTLCWGRHDNSIYAIRDWEIAPDGSQSYQYDFAWVEENSVARAQAKSFPGGEDKLRYQAVFFTSPVDVKGTSYLSTWYYDQRKFPDLSGYLPAFKRVRKFPTNQRFEPLVAGVNFYLSDAWASGDPMLTWGNYKIVGRGPMLGAQSQTWYGDHPNWERPVHGGPKGITFFDTNMELCPDVVVFEAEPVGYPRAPVSKKRVWVDTRNMMFVAYVTYDRRGDLFKSFEPQFSLYEKGDKKLMDGSHTAWSWTAVTCHNIQDGRMTRFLQTKSIAGGVSQGYNVEGTFDKYLTEQALQRLGT | not soluble
7 | MGSDKIHHHHHHMHSLQQLKSQLLSYHAGILGEEYVKKSAVFIPLVEKDDGVHVLFEVRAHTLKQQPGEICFPGGRIDPEDASPEEAAIRETSEELGIPSSVIAPITSLDVLVTPFRGIIYPVIGSIPHKNDYPLNQAEVDHVFTVPIDHFISHPPEQYRINVHFEPGAGFPIERIANQSAYQKSTRQITESFYYYQSYVIWGLTAKILRHVITILKPS | not soluble
8 | MGSDKIHHHHHHMHVGIFADGGYEKGMGHVVRMKRLAEGLKQRCLITFYTNQDSEAFLHEEHWQVIVKPELQQHEFILREIKSKKLDLLLFDILGAPAELLKKIKTETDAKIVLFEEKNGKSIQYSDAVINGIYGDIRSRVYVQGNTRIYEGPDYLILHPAFQAAREDYTLKKDCRNILVALGGSDPKQLIFKVLAAADQVPDIKDKNMMFVMGSASPHQEAVRRRIEKKPQYKMIEQTNDMAGLMKQADAAIVAGGISLYEAICIGVPCLVLSQVEHQTATAKTFADQGAALDLGLGELVPDETLIYQMSRIMSSYPLRLSLHKGGRPLVDGKGIIRVTAILQDLYEQEI | not soluble
9 | MGSDKIHHHHHHMIDSSLVLDAETIRNFVKSVNDADSMDKVRAAVSSFAEELRSKSSENGISIREDVLKSILQRIASSHTTELARHYANEVYNMAFISRKLPYSDIDLSRWREYDFVITDSLWLFDKRDYRGSKLGWYWGNFVPQIPRQLILRFSRKDEWVLDPFSGSGTTLIEAKKLGRNSLGIEINEEVCKKSLEILNSIDGDGFSTAISGDSASVNLTKVMEYYGIPEFNLVIMHPPYHDIIKFTDIGGDLSNARDTKEFLSMLGKVTRNVSKYLQKGRFLALVIGDKYSNGEWIPLGFYSMQKVMDQGFRLKSTIVKNFEYTRGKASSSDLWRYRALAGGFYVFKHEYIFVFQKT | not soluble
10 | MGSDKIHHHHHHMIDVIIVGGGPTGTMLASELRLHGVHTVVVEKRAEPTRIVRGLGLHVRSIEIMDQRGLLERFLAHGTKHPVGGYFAGIMKPWPKSLDTAHPYILGIPQPTTDRLLEERASELGADIRRGWELVGLSQDEDGVTAQLADGTQLRARYLVGCDGGRSTVRTLLGVGFPGESATTEWLLGEVKATASPETVAAVMAKVRQTQLGFAMGPLDDGVYRAVVPAAHVSEDRAAPPTLEEFAQRLREVTGTDFGVHSPRWLSRFNDATRQAERYRVGRVLLAGDAAHIHAPLGGQGLNLGIQDAFNLGWKLAAAVNGWAPEGLLDSYHTERHPVAAEVLDNTLAQSAFMSTDPRARAAHRLLLELMDFEEVNRHVMEKITAVGVRYDFGDGHALLGRRLRDVRLGQGRLYERMRHGRGVLLDRTGRLSVAGWADRVDHVADSAAEIDVPALLLRPDGHVAWIGEDQDDLLAHLPRWFGDPAA | not soluble
11 | MGSDKIHHHHHHMIEFKEVSKRFGSTLALDKLDANFPTGKIIGLFGPNGAGKSTSIKMIAGLNRPDQGQVVIDGELPRMSKAQIAYLPEIDHLYPWMTIGQAAGFTRSFYVDWDNDKYHELLKYLNLNAEMKIGKISKGQRAKTKLLLTAARRAPYLLMDEPLSGIDILTREEIINTLVRDYREGEQTIIISTHEIAEVESLVDEVFFIDQGKIMLSGSAEEFRVERGQSLVEIMKEAFRHADQ | not soluble
12 | MGSDKIHHHHHHMIETKFKQTELCRIPEDWDIGTFADFLITFSAGATPYRGIPDNFVGTIPWISSGELNYCEIENTREHISSDAQKNTHLTLHKPGTFLIAITGLEAAGTRGRCAFVKTPATTNQSCLAINSTDKMTVKYLFWFYRQWSDFLAFNFSQGSKQQSFTAEIVKRLPLYAPKYKEQEKIAEALSDVDKLIRELDTLIEKKRAVMQGTMQELLTAHRRLPGFVHPWRNTLVEKCCKITTGESNTRDQIESGIYPFYIRSATVMRSNSYIFDCEGVITIGDGQIGKVFHYVNGKFDLHQRCYLMYDFDDIDVKFFYFLFSFFFYNRVIALSAKATVDSVRRNMIAKMKINIPSTMQEQKAIANILSDMNDGIEAIEAKRDKYIAVRQGMMQQLLTGKIRLI | not soluble
13 | MGSDKIHHHHHHMIFTLPNTTTQEIAKTLVKIRDTGGQVTTSRVLTLIVVARDTSDVEGIIRATNEASQEHPSRVIILVAGSHEGESQVDAEVRIGGDAGASEMILIKLAGRVAKHLVHVVTPLLLPDTPIVAWWPSSAPINPAEDPIGKIAQRRITDSHFDPPVDALYNRRNHYAPGDSDFSWARLTPWRGVLASSLDQAPYEMVQDVRVYGESDCPSVDLAAGWLCERLGISVERHNYGSGSAAFDDAGLAKIPVKRIELERPSGCVVIEALDDDQTLSVSIPGRSTAHVAVTRRSQADCLAEELRHLDPDIAYARALRGLSRVSYPTQ | not soluble
14 | MGSDKIHHHHHHMIGAWCFLDHAGPVTFPAGNGLDVGPHPHIGLQTFTWMIEGTMMHTDSLGSKQLIRPKQVNLMTAGHGISHTEVAPDTETQMHAAQLWIALPDHKRNMDPKFEHYPDLPVVEKDGLEFTVLVGEYLETTSPVVVHTPLVGVDLIATQDTKTRIPLNPEFEYGFMALDGVAHVNGHELTADNMVVLDTGLNEIEIEVKKGNRVLLIGGEPFETPILLWWNFVARTMDDLKEAREQWVNHDVRFGEIPDYVGARLEAPVLPDQMRASK | not soluble
15 | MGSDKIHHHHHHMIHFSINKNLFLQALNTTKRAISSKNAIPILSTVKIDVTNEGITLIGSNGQISIENFISQKNEDAGLLITSLGSILLEASFFINVVSSLPDVTLDFKEIEQNQIVLTSGKSEITLKGKDSEQYPRIQEISASTPLILETKLLKKIINETAFAASTQESRPILTGVHFVLSQHKELKTVATDSHRLSQKKLTLEKNSDDFDVVIPSRSLREFSAVFTDDIETVEIFFANNQILFRSENISFYTRLLEGNYPDTDRLIPTDFNTTITFNVVNLRQSMERARLLSSATQNGTVKLEIKDGVVSAHVHSPEVGKVNEEIDTDQVTGEDLTISFNPTYLIDSLKALNSEKVTISFISAVRPFTLVPADTDEDFMQLITPVRTN | soluble
16 | MGSDKIHHHHHHMIINRSKDSSSNEISFVSKDMGFLLTQSEVSYNFKDKLVEDIAKQVFAENRLSVGTIAKTNVKYTKMFIGVNGYDTIMSAYTEASKKTKKKYMIEANLDKFNVIEKGTVTLSVMFEEGFNIINTTFSESMENVKNKVIVVDQYGSKISEKIDNEIFKEVNVIMQKVIQQQENQDVDIDSEFNGIEKSCSLKGYGDVSCITGRGVKVKDSYTKLVGLFYIDTDKHTWQNGEYQIELELNFQNLMDEKSAGQDEPKEESNLGGEDYAGGKEFTAEFTAYCPRKEEGGDTDCRKKKLDPSKKTCAAPMVGKYEQTYYTKEFLNKHPLLNYGDEIQVITGVSGRDGVYKVNDVGPAITIEKNGTYHIDILFGNVEEASKFGRRKGKIIIGGYSGNVSDKAKIVISEAKKHLGKPYKWGGNGPSSFDCSGLMVYCFKKVNVSLPRTSNQQSKKGKKVEQKNLQAGDLVFFHNPVSHVGLYIGNGEFLHAPQKGDVVKISKLSSRRDFNTARRVL | not soluble
17 | MGSDKIHHHHHHMILAAKNSVFVHIRRGDYVGIGCQLGIDYQKKALEYMAKRVPNMELFVFCEDLEFTQNLDLGYPFMDMTTRDKEEEAYWDMLLMQSCQHGIIANSTYSWWAAYLIENPEKIIIGPKHWLFGHENILCKEWVKIESHFEVKSQKYNA | not soluble
18 | MGSDKIHHHHHHMILCAGEALIDMLPRKTEAGEAAFAPYPGGSVFNTAVALSRLGTKTEFFSGLSTDLFGERLDSVLMANGVGSALAHRNDRPTTLAFVTLTDGHASYAFYDENTAGRMLTEADLPAIPETAKACFFGGISLAVEPCADAYAALIGRANDLGRVVMIDPNIRPGFIADEARFRARLDQMLAQTDIIKASDEDLRWLLGDMSLPELAEALRAKGPSVVLVTQGAAGVTGFYAGGEIHVDAEAVTVVDTVGAGDTFNAGVLAGLDDAGALDKAMIAKGLDAETLRGAMELGVRASAVTVTRAGANPPRRDELS | not soluble
